Experimental findings from publication PMC5849085 (Immunity, 2017) are described below.

The target in test [1] is T1, human IL-1RAcP (residues 1-350) fused to human IgG1-Fc (human, UniProt Q9NPH3 21-350).
T1 sequence (looked up): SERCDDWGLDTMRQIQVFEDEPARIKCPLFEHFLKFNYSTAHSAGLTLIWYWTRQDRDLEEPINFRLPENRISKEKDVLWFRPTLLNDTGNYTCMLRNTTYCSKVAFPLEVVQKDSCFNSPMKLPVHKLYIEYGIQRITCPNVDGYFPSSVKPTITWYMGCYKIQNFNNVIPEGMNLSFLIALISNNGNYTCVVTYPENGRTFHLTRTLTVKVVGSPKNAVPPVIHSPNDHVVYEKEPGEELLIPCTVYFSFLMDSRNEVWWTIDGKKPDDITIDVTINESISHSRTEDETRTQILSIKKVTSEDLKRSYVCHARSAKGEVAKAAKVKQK
The experiment in a line: SPR.

Test [2] deals with T2, human IL-1RAcP (residues 1-350) (human, UniProt Q9NPH3 21-350).
T2 sequence (looked up): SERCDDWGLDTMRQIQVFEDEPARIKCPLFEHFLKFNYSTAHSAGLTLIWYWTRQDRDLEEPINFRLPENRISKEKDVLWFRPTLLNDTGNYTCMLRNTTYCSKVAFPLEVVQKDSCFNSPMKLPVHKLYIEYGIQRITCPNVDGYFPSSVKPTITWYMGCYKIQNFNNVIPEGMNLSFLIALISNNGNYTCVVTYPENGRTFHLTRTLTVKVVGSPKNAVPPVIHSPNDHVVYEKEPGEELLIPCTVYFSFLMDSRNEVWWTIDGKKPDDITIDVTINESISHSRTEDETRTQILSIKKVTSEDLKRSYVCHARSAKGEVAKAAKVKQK
The experiment in a line: HDX-MS.

B1: human IL-33:ST2 binary complex (complex)
chain 1: SITGISPITEYLASLSTYNDQSITFALEDESYEIYVEDLKKDEKKDKVLLSYYESQHPSNESGDGVDGKMLMVTLSPTKDFWLHANNKEHSVELHKCEKPLPDQAFFVLHNMHSNCVSFECKTDPGVFIGVKDNHLALIKVDSSENLCTENILFKLSET
chain 2: QTGKFSKQSWGLENEALIVRCPRQGKPSYTVDWYYSQTNKSIPTQERNRVFASGQLLKFLPAAVADSGIYTCIVRSPTFNRTGYANVTIYKKQSDCNVPDYLMYSTVSGSEKNSKIYCPTIDLYNWTAPLEWFKNCQALQGSRYRAHKSFLVIDNVMTEDAGDYTCKFIHNENGANYSVTATRSFTVKDEQGFSLFPVIGAPAQNEIKEVEIGKNANLTCSACFGKGTQFLAAVLWQLNGTKITDFGEPRIQQEEGQNQSFSNGLACLDMVLRIADVKEEDLLLQYDCLALNLHGLRRHTVRLSRK
For B1, in test [1], the “half-life of the ternary complex” value was found to be 26 min. The “half-life of the ternary complex (EX1 kinetics of IL-1RAcP(150-156))” value in test [2] is 10 min.
